Consider 2 sequences from US6245531.

In data set [1] the target is T1, Ecdysone receptor EcR (878 aa ORF, Table 2) (Drosophila melanogaster) (UniProt P34021).
T1 sequence: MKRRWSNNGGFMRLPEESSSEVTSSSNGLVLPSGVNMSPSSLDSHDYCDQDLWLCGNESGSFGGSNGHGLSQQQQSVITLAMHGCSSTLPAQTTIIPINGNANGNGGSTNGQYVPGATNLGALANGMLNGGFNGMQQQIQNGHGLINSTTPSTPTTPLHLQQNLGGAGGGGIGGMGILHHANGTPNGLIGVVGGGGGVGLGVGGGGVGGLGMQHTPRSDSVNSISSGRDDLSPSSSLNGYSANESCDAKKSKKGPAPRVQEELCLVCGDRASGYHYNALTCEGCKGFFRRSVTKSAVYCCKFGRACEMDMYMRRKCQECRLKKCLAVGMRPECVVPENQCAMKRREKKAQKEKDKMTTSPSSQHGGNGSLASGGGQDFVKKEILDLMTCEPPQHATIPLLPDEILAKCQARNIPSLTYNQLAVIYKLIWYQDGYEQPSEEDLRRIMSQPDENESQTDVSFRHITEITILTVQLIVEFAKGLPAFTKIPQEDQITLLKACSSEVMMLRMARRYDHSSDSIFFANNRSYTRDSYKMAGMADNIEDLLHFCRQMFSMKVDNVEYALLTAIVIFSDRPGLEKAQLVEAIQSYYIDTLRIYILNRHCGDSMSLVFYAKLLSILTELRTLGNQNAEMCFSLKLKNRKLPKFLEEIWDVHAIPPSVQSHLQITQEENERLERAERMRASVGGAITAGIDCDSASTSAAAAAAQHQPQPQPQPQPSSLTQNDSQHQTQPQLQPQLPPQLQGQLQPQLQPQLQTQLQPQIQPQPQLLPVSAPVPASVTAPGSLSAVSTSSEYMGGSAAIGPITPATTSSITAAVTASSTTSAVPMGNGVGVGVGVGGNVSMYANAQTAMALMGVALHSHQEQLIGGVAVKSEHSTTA
Briefly: pulldown. The note with it: anti-EcR immunoprecipitation on magnetic beads; 180 mM KCl EcR buffer pH 7.0, poly dI/dC, 25 C; no hormone stated; antibody dependent; scale: fold preference over average vector sequences.

Data set [2] concerns the target T2, Endogenous ecdysone receptor of Sch-2 cells (EcR) (Drosophila melanogaster) (UniProt P34021).
T2 sequence: T1 sequence
Briefly: cell_activity. To be noted: 20-OH ecdysone 2e-6 M, beta-galactosidase reporter.

In the case of “TCGAGAGACAAGGGTTCAATGCACTTGTCCAATG / TCGACATTGGACAAGTGCATTGAACCCTTGTCTC”, the binding signal in data set [1] came to 1000.

Consider “TCGAGAGACAAGGGTTCAATGCACTTGTCCAATG / TCGACATTGGACAAGTGCATTGAACCCTTGTCTC [pEcRE/Adh/betagal reporter, 7 x EcRE upstream of Adh -34+53]”, for which the activity (fold induction by ecdysone) in data set [2] was 2000.
